Assay [1] concerns the target T1, mouse EphA4 extracellular region-SEAP-His protein (mouse). The experiment in a line: SPR (Biacore T200), EphA4-SEAP-His captured by anti-His antibody; F(ab')2 (bivalent), not Fab. How it is done:
(§1) Next, the binding affinity of antibody A-Fab and antibody A-F(ab′)₂ for mouse and human EphA4 was determined by surface plasmon resonance (SPR) using Biacore T200 (GE Healthcare). Antibody A obtained in Example 1 was used as a control for the comparison of each fragment. First, an anti-His tag antibody was immobilized on sensor chip CM5. The immobilization of the anti-His tag antibody on sensor chip CM5 was performed by the amine coupling method using N-hydroxysuccinimide (NHS) and N-ethyl-N′-(3-dimethylaminopropyl)carbodiimide hydrochloride (EDC). Ethanolamine was used in blocking (the sensor chip and the reagents for immobilization were all manufactured by GE Healthcare). The antibody was diluted with a buffer solution for immobilization (10 mM sodium acetate, pH 4.5) into 3 μg/mL and immobilized on the sensor chip according to the protocol attached to Biacore T200.
(§2) Mouse or human EphA4 extracellular region-SEAP-His protein was diluted with a running buffer solution HBS-EP (GE Healthcare, BR-1001-88), injected onto a flow cell for 120 seconds, and captured (amount of the protein captured: approximately 10 to 20 RU). Subsequently, antibody A (50, 16.7, 5.6, 1.9, 0.6, and 0 nM), antibody A-Fab (500, 166.7, 55.6, 18.5, 6.2, and 0 nM), or antibody A-F(ab′)₂ (50, 16.7, 5.6, 1.9, 0.6, and 0 nM) serially diluted using HBS-EP was added to the sensor chip for 120 seconds. […]

Assay [2] deals with T2, human EphA4 extracellular region-SEAP-His protein (human, UniProt P54764 20-547).
T2 construct: also called hEphA4-SEAP-His
T2 sequence (P54764 20-547): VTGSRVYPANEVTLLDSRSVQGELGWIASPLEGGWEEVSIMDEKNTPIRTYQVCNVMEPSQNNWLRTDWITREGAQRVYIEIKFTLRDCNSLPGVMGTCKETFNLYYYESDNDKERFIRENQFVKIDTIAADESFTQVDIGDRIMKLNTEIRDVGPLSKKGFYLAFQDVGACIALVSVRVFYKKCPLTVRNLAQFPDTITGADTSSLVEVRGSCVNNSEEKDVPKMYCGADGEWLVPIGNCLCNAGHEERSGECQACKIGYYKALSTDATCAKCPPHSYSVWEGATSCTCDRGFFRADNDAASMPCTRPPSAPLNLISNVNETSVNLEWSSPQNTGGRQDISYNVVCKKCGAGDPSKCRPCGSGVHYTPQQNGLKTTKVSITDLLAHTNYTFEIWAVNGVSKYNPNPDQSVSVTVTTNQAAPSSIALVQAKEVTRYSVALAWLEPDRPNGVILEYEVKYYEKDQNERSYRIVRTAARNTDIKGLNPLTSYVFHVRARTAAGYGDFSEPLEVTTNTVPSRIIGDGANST
Described as above. As for the experimental part: as §1, §2

In assay [3] the target is T1, mouse EphA4 extracellular …. The experiment in a line: SPR (Biacore T200), mouse EphA4 extracellular region-SEAP-His captured on an anti-His antibody CM5 chip, F(ab')2 as analyte at 0.6-50 nM, 1:1 fit. How it is done: as §1, §2
Assay [4] concerns the target T2, human EphA4 extracellular …. The experiment in a line: SPR (Biacore T200), human EphA4 extracellular region-SEAP-His captured on an anti-His antibody CM5 chip, F(ab')2 as analyte at 0.6-50 nM, 1:1 fit. How it is done:
as §1, §2

For assay [5], the target named is T1, mouse EphA4 extracellular …. The experiment in a line: competition ELISA, competitor biotinylated mouse Ephrin B2-Fc. How it is done:
Antibody A-Fab and antibody A-F(ab′)₂ obtained in Example 5 were evaluated for their inhibitory activity against the binding between EphA4 and its ligand according to the following steps. Each well of a 96-well plate (Nunc) was coated with an anti-alkaline phosphatase antibody (Thermo Fisher Scientific). After incubation overnight at 4° C., each well was blocked with 1% BlockAce (DS Pharma Biomedical) at room temperature for 1 hour. After washing with 0.05% Tween 20/PBS (Thermo Fisher Scientific) three times, the mouse EphA4 extracellular region-SEAP-His protein obtained by the method of Example 1 was added (final concentration: 10 nM) to each well and incubated at room temperature for 1 hour. After washing three times, a ligand and serially diluted antibody A (0, 0.003, 0.01, 0.03, 0.1, 0.3, 1, 3, 10, 30, 100, 300, 1000, and 3000 nM), antibody A-Fab (0, 0.003, 0.01, 0.03, 0.1, 0.3, 1, 3, 10, 30, 100, 300, 1000, and 3000 nM), antibody A-F(ab′)₂ (0, 0.003, 0.01, 0.03, 0.1, 0.3, 1, 3, 10, 30, 100, 300, 1000, and 3000 nM), or the EphA4 inhibitor KYL peptide ([…], 0, 0.0003, 0.001, 0.003, 0.01, 0.03, 0.1, 0.3, 1, 3, 10, 30, 100, 300, 1000, and 3000 μM, its synthesis was outsourced to Toray Research Center) were added to each well. The ligand used was biotinylated mouse Ephrin B2-Fc chimera (R&D Systems, final concentration: 2.5 nM). After incubation at room temperature for 1 hour and subsequent washing three times, horseradish peroxidase-labeled streptavidin (GE Healthcare) was added thereto and incubated at room temperature for 1 hour. After washing three times, a TMBZ (3,3′,5,5′-tetramethylbenzidine, Sigma-Aldrich) solution was added to each well and incubated at room temperature for 2 minutes. An equal amount of a reaction stopping solution (1N H₂SO₄, Wako Pure Chemical Industries) was added to each well. The absorbance at 450 nm was read using a microplate reader (Molecular Devices or PerkinElmer).
Antibody A and antibody A-F(ab′)₂ had 1000 or more times the activity of the KYL peptide, and antibody A-Fab also had 10 or more times the activity of KYL peptide.

T1 sequence (chain, as listed by the source limits assumed): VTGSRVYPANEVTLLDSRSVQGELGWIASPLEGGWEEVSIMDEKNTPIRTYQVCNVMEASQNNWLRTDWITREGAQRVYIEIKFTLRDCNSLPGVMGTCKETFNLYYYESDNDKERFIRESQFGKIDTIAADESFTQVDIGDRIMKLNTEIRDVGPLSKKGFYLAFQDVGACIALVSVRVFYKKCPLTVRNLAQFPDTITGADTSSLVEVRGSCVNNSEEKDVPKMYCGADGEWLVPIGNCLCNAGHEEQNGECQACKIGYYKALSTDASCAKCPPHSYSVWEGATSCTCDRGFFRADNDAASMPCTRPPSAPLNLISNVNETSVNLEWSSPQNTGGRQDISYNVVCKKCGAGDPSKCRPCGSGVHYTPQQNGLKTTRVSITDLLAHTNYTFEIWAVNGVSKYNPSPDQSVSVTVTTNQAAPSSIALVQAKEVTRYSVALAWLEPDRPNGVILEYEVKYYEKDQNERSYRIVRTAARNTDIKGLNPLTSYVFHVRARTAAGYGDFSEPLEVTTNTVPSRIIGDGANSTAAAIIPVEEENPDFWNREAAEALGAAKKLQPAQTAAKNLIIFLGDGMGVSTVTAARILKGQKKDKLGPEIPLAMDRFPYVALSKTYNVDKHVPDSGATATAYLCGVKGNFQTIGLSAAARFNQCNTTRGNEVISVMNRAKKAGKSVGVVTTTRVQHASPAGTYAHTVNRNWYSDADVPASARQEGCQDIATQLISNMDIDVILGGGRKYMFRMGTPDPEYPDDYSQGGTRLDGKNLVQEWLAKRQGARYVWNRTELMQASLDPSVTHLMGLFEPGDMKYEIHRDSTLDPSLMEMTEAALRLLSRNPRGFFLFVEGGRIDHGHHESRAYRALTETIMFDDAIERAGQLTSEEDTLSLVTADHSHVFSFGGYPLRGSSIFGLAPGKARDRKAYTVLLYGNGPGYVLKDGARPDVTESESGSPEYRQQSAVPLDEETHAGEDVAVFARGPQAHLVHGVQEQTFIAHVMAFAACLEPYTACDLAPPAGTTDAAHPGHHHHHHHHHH

B1: antibody A-F(ab')2 (other, not shown: a dimerising Fc or GST)
heavy: QIQLVQSGPELKKPGETVKISCKASGYTFTDYSMHWVKQAPGKGLKWMGWINTETGEPTYADDFKGRFAFSLETSASTAYLQINNLKNEDTATYFCARIPLYYYGSRYWYFDVWGAGTTVTVSS
light: DIQMTQSPASLSVSVGETVTITCRASENIYRNLAWYQQKQGKSPQLLVYAATNLADGVPSRFSGSGSGTQYSLKINSLQSEDFGSYYCQHFWGTPWTFGGGTKLEIKRADAAPTVSIFPPSSEQLTSGGASVVCFLNNFYPKDINVKWKIDGSERQNGVLNSWTDQDSKDSTYSMSSTLTLTKDEYERHNSYTCEATHKTSTSPIVKSFNRNEC
notes: made by pepsin digestion of antibody A; also called F(ab')2 fragment of antibody A
On to B1, for which the Kd in assay [1] stood at 22.9 pM; in assay [2], 53 pM. Besides, the koff is 0.000205 s⁻¹ in assay [3] and 0.0333 s⁻¹ in assay [4]. Further, the kon came out at 8.98e+06 M⁻¹ s⁻¹ in assay [3] and 629000 M⁻¹ s⁻¹ in assay [4]. The IC50 in assay [5] worked out at 2900 pM. Moreover, the “fold activity against KYL peptide” value in assay [5] is not below 1000 fold.

Source of the values: patent US20190077860A1 (EISAI R AND D MANAGEMENT, published 2019).
